In publication PMC10139993:

Assays:
[1] = biological target: GFP only (eGFP expressed from the pcDNA3.1(+)-N-eGFP backbone without gene insertion); assay: single-molecule pull-down (SiMPull) with GFP photobleaching step counting; diluted NP40 lysate (1:100-1:10,000 in T50: 10 mM Tris-Cl pH 8.0, 50 mM NaCl) of transfected SH-SY5Y cells flowed over a PEG/neutravidin surface with biotinylated anti-GFP antibody; 488 nm TIRF, room temperature; photobleaching steps counted per spot; 30% dimers subtracted for GFP self-dimerisation; cells without or with 0.4 M sorbitol 4 h (also arsenite) before lysis
[2] = biological target: T1, Fused in sarcoma (FUS) wildtype with N-terminal GFP tag, P35637; assay: single-molecule pull-down (SiMPull) with GFP photobleaching step counting; diluted NP40 lysate (1:100-1:10,000 in T50: 10 mM Tris-Cl pH 8.0, 50 mM NaCl) of transfected SH-SY5Y cells flowed over a PEG/neutravidin surface with biotinylated anti-GFP antibody; 488 nm TIRF, room temperature; photobleaching steps counted per spot; 30% dimers subtracted for GFP self-dimerisation; cells without or with 0.4 M sorbitol 4 h …; details: remark: other sources report otherwise
T1 chain: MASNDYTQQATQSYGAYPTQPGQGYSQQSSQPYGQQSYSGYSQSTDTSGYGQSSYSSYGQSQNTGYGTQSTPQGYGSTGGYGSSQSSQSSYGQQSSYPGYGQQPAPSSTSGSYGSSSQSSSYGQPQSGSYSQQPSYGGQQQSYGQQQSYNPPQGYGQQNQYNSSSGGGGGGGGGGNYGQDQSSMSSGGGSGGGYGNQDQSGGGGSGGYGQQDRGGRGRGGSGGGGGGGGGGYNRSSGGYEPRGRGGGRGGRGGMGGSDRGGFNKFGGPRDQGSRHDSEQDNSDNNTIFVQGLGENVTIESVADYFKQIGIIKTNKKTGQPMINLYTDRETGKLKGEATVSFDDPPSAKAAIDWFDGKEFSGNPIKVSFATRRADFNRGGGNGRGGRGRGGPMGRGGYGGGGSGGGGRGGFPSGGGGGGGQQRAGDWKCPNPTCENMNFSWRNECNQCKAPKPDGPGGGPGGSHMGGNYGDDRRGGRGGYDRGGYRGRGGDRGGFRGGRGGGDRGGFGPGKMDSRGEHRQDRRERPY

Molecule: GFP only (eGFP expressed from the pcDNA3.1(+)-N-eGFP backbone without gene insertion)
- percent dimers [1]: 30%
- percent monomers [1]: 70%

B1: Fused in sarcoma (FUS) wildtype with N-terminal GFP tag, P35637 1-526 (natural protein)
chain: T1 chain
- average photobleaching step (after subtracting the GFP self-dimer fraction) [2]: 1.5 steps
- increase in average photobleaching steps with sorbitol stress [2]: 0.5 steps
